Key:
Format in all cases: cell-based
[1] = target: T1, E-selectin (Homo sapiens, UniProt P16581); assay: Blot rolling assay with CHO-E cells; conditions: immunoprecipitated CD44 on Western blot; 3.8 dynes/cm^2
T1 construct: stably transfected with full-length cDNA encoding human E-selectin; expressed in transfected cells
T1 sequence (P16581 22-610): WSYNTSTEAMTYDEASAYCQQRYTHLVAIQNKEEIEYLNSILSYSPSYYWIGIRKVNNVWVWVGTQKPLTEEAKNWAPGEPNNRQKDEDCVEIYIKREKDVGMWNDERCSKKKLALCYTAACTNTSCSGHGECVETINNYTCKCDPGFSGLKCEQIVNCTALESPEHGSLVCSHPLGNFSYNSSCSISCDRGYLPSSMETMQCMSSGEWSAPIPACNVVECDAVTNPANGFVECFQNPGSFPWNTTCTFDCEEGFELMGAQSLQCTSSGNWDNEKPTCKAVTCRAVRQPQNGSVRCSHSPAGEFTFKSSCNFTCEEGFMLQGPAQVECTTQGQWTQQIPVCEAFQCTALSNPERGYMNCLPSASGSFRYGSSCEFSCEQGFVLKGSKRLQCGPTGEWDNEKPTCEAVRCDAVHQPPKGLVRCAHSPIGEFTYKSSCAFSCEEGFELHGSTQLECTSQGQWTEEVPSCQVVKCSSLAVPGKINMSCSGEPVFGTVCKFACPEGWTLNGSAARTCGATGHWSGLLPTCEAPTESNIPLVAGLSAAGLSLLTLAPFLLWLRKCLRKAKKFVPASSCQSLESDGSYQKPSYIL
Experimental: The blot rolling assay was performed as previously described (Dimitroff et al., 2000). Briefly, CHO-E, CHO—P or CHO-Mock transfectants were isolated as described above, washed twice in HBSS and suspended at 10^7/ml in HBSS/10 mM HEPES/2mMCaCl2 (H/H/Ca++)/10% glycerol. Western blots of HPC membrane preparations stained with HECA-452 were rendered transparent by incubating them in H/H/Ca++/10% glycerol. The blots were then placed in the parallel-plate flow chamber, and CHO transfectants (2×10^6/ml) were perfused into the chamber. After allowing the cells to come in contact with the blotting membrane, the flow rate was adjusted to exert a shear stress of 3.8 dynes/cm^2. The viscosity of 10% glycerol adhesion assay medium was considered in the calculation of shear stress values. The number of cells rolling on and between each immunostained banding region was quantified under 100× magnification within each field of view on the video monitor using molecular weight markers (Kaleidoscope Molecular Weight Markers, Bio-Rad Lab.; See Blue® from Novex, Inc.) as guides to help align and visualize the apparent molecular weights of the proteins of interest. A minimum of 3 experiments was performed and results were expressed as the mean±SD of cell rolling/field at 100× magnification.

[2] = target: T1, E-selectin; assay: CHO-E cell rolling on immobilized immunoprecipitates, parallel-plate flow chamber; conditions: immunoprecipitates on plastic; 2.8 dynes/cm^2
Experimental: CD44 was immunoprecipitated from untreated cell lysates or from cell lysates treated with N-glycosidase-F (0.8 U/ml) Vibrio cholerae neuraminidase (0.1 U/ml) or a-L-fucosidase (80 mU/ml), and PSGL-1 was immunoprecipitated from untreated cell lysates as previously described (Sackstein and Dimitroff, 2000; Dimitroff et al., 2000).
CD44 or PSGL-1 immunoprecipitates were spotted onto plastic petri dishes, fixed in 3% glutaraldehyde and incubated in 0.2M lysine to block unreactive aldehyde groups, and then non-specific binding was prevented by incubating in 100% FBS for 1 hr at RT. Fixed spots were also treated with Vibrio cholerae neuraminidase (0.1 U/ml assay medium), which was overlaid onto the spots and incubated at 37° C. for 1 hr. […] The flow rate was then increased to achieve a shear stress of 2.8 dynes/cm^2. The frequency of cells rolling per 100× magnification field was determined, and data were expressed as the mean±standard deviation of 8 fields visualized from a minimum of 3 experiments.

[3] = target: T2, L-selectin (Rattus norvegicus, UniProt P30836); assay: Stamper-Woodruff assay, lymphocyte adherence to immunoprecipitated CD44 and PSGL-1; conditions: 80 rpm
T2 construct: L-selectin naturally expressed on leukocytes; endogenous in cells; host or cells: lymphocytes (rat thoracic duct lymphocytes; human PBMC also prepared)
T2 sequence (P30836 39-372): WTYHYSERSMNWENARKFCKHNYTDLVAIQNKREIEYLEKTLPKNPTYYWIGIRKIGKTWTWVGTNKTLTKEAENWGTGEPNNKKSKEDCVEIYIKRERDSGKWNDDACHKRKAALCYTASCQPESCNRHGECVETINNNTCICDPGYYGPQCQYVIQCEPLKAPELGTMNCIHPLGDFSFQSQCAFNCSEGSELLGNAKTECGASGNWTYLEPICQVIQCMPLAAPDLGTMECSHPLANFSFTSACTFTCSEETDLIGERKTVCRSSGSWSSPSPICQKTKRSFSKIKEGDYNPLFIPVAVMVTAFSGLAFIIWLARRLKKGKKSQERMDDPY

Substance: KG1a CD44: glycoform of CD44 with HECA-452 reactive sialylated, fucosylated N-glycans, immunoprecipitated from KG1a cells with Hermes-1
- E-selectin ligand activity (CHO-E cell rolling) in blot rolling assay [1]: possessed E-selectin ligand activity
- E-selectin ligand activity (CHO-E cell rolling) [2]: exhibited E-selectin ligand activity over a range of shear stress
- Mean Number of Bound Lymphocytes ([3]; 0.75 μg/spot (PSGL-1 1 μg/spot), 4° C., 100× mag.): 357.8
- fold higher mean number of lymphocytes bound to CD44 than to PSGL-1 ([3]; p<0.001): 3 fold

Source: US10370642B2, “Hematopoietic progenitor cell populations having affinity for E-selectin / L-selectin” (priority 2000, dated 2019)
